The NTF2 design screens of Basanta et al. (2020)

Test: protease stability score; higher = more stable; yeast display proteolysis, trypsin and chymotrypsin;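 also: log10 excess protease needed over predicted unfolded state with 0 meaning unfolded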

First: DEKDVEKIMKKMDETFVKGNTEELEKLGKEDVEVQYGDKREKGPDAIRKVLEKVKQLGIKVEYKEVHIKGDTATVKVEADMAGQTARFEVTYVVRGNRVDRVVVKYDEEAQKVIKHG
Second: DEEDLHNALNAWKAFNTGDPDRAVQLADPNVNVVIGDKHVHGREQLSHEIKRVRHESNVQVRHVNNDNQGEKAKVQAEMVDTQNGQPRTFTVDIDVRAHNGKLKEVKVQEQD
The protease stability score of the first is higher: 0.772 for the first, -0.322 for the second.

First: DDDAVRRMKEFEEAKQHGDPDELRRLADPNVRLEYGDKEIHGRDTMAQTLKNEVDEIRMEVDFRHFTSQGDKVSIQAEQSRDNNGQPQSVKAQFDARFHNGRLKHLRVQLDG
Second: DEKDHENVARNLVTAIVQGDPDRFKELLDKNVKFKYGETDVKGKDNAERVMKDFIKEADQVRVQTLSFHGEHIVINMVADVNGEEQRFQIRAKVHNGRVKEMVWHSR
The protease stability score of the first is lower: 0.114 for the first, 1.5 for the second.

Compared with “DEDHEAQRFFDHFEEVVQTGDPDQAKQLIDKNATAKYGDQEYHGWEDVHKHWLRLRRQADHIKFEVDDVRATNGRYEIQFVVIIDTNGNENTRRYRLQAQEDNGRLRVQNLTQQ”, “DEKKVKELLVRAVQAYVNGNTEEVKKLLKEDVQLHAVNHTYHGVEQLLKVVKRMKEYGIKLQVTDHKVDGDKVDVKVQFHAAGETKEVTFRVQADGGKVDKVEVHVTEEVQKLAEKG” is lower in protease stability score: 1.49 for the first, 1.05 for the second.

First: DERENKKHAEQLARVFQTGDHDQLRKMMPPDAKAQVGDKEYQGRDSVLHDIKRFLRQADSITIQSVTVQGNTLNIHIQLDINGKDFQAVIEVEMHNGKVVRIVIKES
Second: DEEEVKKQLEKLVKMLVKGNKDEIKKFLDPDVEYKVVDEDFQGQQVAEHAYKKIKKVGARMEVKEVRVEGDTAKATYEFTAGGTTVRAEIEAEVHGGRVKHWQVDLDDTAKELIKKG
The protease stability score of the first is lower: -0.044 for the first, 0.266 for the second.

First: DEDETAKRVNDKAREAAETNNPKQFEELADPNVRMVIGDKEWRGRRQLSHWYKEMADRADHMQVDYQDVHVSGDKVTLHVQINLESNGHSEIKTLIVVMVVHNGRLRAQSQWEQ
Second: DEQKDDKRSKDIKKQVEKGNEHEILKLFDKDAKVRVGDKVVQGRESIKDEIHHLRRRVDNIEVKEVHAQGDKVTVDVQVDVNGVQIRQVLHIQMNNGKVTDAKVEFTNEEQLRQMHG
The protease stability score of the first is higher: 0.534 for the first, 0.099 for the second.

First: DQQHTASKVLSDMVKAIQDGDEDHISEQADENVKIRIGDKEYHGKENARRMLKEIQHQVDHISVEVKSVSSHNGRVNVRAEVQMRFNGRSTSYDVTAIFRYNNGQLRLYSVSAR
Second: DSHTIAKELMKTWQDAARNNDEDKLKELIDKDASASVGDKTFHGRESFARHVQEQARRADHLEVRLESMSINGDHIHLQFVVRYNVNGKESSDRYVVIFHKVNGKFRVRQIKQR
The protease stability score of the first is lower: 0.242 for the first, 0.721 for the second.

First: DEELAKKVLEKWVKVVDKGDDQAVKKLYKPNGTWINGDEETQGAEKVVKMMQKAQKKGDQFQVRKAKVEGNHVEFHYDLRIGDQTATFTVKVQVQGGRVEEVKVEVDKKAKEIITKG
Second: DEEAARKFEHALRVREHGNEHQLQELVDPNARVSIGDKRVKGHERIQHWQETLHHEMRFRMQVDSYEVQGEKVRFNVRVQYDINGQPVDDRMTLVVQFDNGRIKSVEYQIPTEMKRDLKR
The protease stability score of the first is higher: 0.06 for the first, 0.032 for the second.

First: DEEDQKELADEMVKVLETGDEDRFSQLLDKDVNINVGDQTYSGSEQAVKWFRELLDNVDSFKFDRVRVNGDQLQIHAILDVNGHDIHVVFQVQFHNGRAQHLNMRYTDDEEKKRFDS
Second: DEDKLRDVAKRLQEIIHTNNPDDLNKQADKDARVQVGDKEYKGRRDVYKFMETLKHQVDQIEIHDVKFDGDHAHFHVMMNVNGKKVEVHIIMEVENGKVKELNFDPKNMEQLDK
The protease stability score of the first is higher: 1.34 for the first, 0.708 for the second.

First: EDRHARRVANDFVRAVRKGDETRLKEQFDEDAEVQVGDTTYTGKERVVKHAQDFANSVDHLDVTDLKVNEDHASLSARVNINGRQDTIRIELRVHNGRLKRVNYDTQ
Second: DEREAENARNYQENQKTNNPQKLQELVDPNVHWQVGDKSYKGRETQKKEMDNKRNHIREHIEHVEVRSHGDKVEAKYTAYADINGDPVRMRFDQVMVVHNGRLTEVNVDMSEDQKRKQES
The protease stability score of the first is higher: -0.032 for the first, -0.46 for the second.

Compared with “DDQVAKMVRKLLRLEESGNEEELRKLADEEAEFVVGDKRYRGMTEYVQSVYHKKKEIRFKIITYSAEDDGDKIVVIIKMTNNHNGQPDTFRVKVVFVANNGNLKHANFRKRK”, “DEEKVKLASEIWKAFDRNNPDRVEELIDPNARFQYGDKKYHGMEQAKNHIKKILDDANIHIKSISMTDHNGKVRAEVEFVRNHNGKPQTDRVEMSAEFTNGRVTHFEVTEVP” is higher in protease stability score: 0.39 for the first, 0.871 for the second.

Compared with “DEEKNDDTARKFLEVFQEGNEDDIRRLADEDVTVEIGDSTYHGREQALTAVREWSKTVDHYSIESIHADNGRAHLHAKVVVNGKTVNLDLVVDVRNGKVKKVMIDPDRLRELKK”, “DERASELAEKIIKALHTGNPQEVQKLVPPDVHVVYGDKNIHGRENAKKYWDQVLRNWRLNIQDFRIDADGDNVTVELHAEFNVNGQPIQARATVTVNVKNGRVKELNVQLPHEDLRRIRQ” is lower in protease stability score: 0.921 for the first, 0.619 for the second.

First: DEDAVRKAKQWVKALRDGDEDELREQVDPNARINVGDKTFHGMDEFVKDVLKTHSEQRVNFDIKSVNASNGRVDMKMDATFDINGEPKTFSLVLTVDFHNGRAKQLEVKFDPKVKEDLTK
Second: DEEKQKEYADRFNEILKSGNEDEFRKMADEDVTAQYGDKEVHGREEVTKTMSRFLRTVDKIKVDSVEVHNGRVIIHFVVRVNGQDQRVVMEFKVHNGKIKELVMRSQ
The protease stability score of the first is lower: 0.769 for the first, 1.51 for the second.

Going from “DKKEHQEAAETFDRALKRGDPDTAMSLFDKDARANVGDKTYQGSEKLSEAMHRLSEEADRFHVRDVHFTNGEVSVNMYLNVNGKRVQVDVHIELSNGRAKEVTFNPDQLNEMQN” to “DEEYAHQLREFLEAWVSGDENRAKQLADPNARVNVGEERISGMDEFMKEVRKRKKEMRIEVKHIKIEVRPNKAKADVKFRVNFNGTPFDVNQKWQAHWHNGKLHSVTVNMDEDQKRFEKG”, the protease stability score rises from -0.119 to 0.451.

Compared with “DESQVDEAKKMAKVWEDGDPDQLRRMADPNAKMHIGDKDIRGHTEATRWVRHLSEHMRQRLDSVRVDTEPNRAEAKIQLTVDVNGKPDRYTAHLNMVVDNGRVRKLEVRFDEEDKKRRQS”, “DEQDQAKKFNDEVRKIFETGNFRQFARLLDKNVTAEVGDQEVHGKEQAHKWAEDVWRTFDHIHYNMVDVDVENGRVEVHVQLTYDHNGTTERRTYVMELKLSNGRLKIVHMKQG” is higher in protease stability score: -0.139 for the first, 0.809 for the second.

Going from “DEEENKHLISLFERNNWRDMAEMADKDVKAQYGDSTIHGREQVHEVLTQLQKRADHLEIKDYNVDGNKVVVDQVINVNGVTIRAKVLMEVHNGRIKQMHVQATDNEEKKKLDKVLS” to “DEENRKDAEKYMKVTENNNPDEVSKLVDPNAKLEIGDKTYHGDEWMMDQQQQDRDQARIEVKRVDIKVHNGQINARVRFVKEENGKPDRRDVDIKMNIHNGRLKRAQFKHTE”, the protease stability score rises from -0.466 to 0.064.

First: DHEREAKHFVDDWVRALRTGDSKTIEELMDPNVTLRVGDQKLHGRSQNSDQVRRWKERVDTIDVKVRSINKTGDHMRVHVDVVMDINGEKDNKELVINFDKHNGRLIVKHASYG
Second: DESLRSKAEEFLKAIEHGDPDEASRQLDPNARFEIGDKEITGRETFDRTMHETRNQMRLEVKSYDARASNGRVHMEVRFQATHNGQPQDNREVQDFQFSNGRIERVSVEKDS
The protease stability score of the first is higher: -0.113 for the first, -0.463 for the second.

Compared with “DRRDLQLVERVLRALQTGDEDKVMENLDPNARVEYGDKEYHGREQLHEQIERDHRNMRFSIDVKRVDLHGDRAHFDATVTMNINGKPFEDRFHIDVVARNGRIKHLSMKMDPDRVKEVES”, “DEHVNKLAHRLLEAIEEGNPEMFKELADEDVHFQVGDKSYHGMEDYANSIVEKLRQMHFEIKSYSFRNEPGRATLDLRVQMEHDGQPRESKNTVDVKAKNGRVKRVKFREKR” is higher in protease stability score: -0.157 for the first, 0.155 for the second.

First: DTDDTEALRRFFDALHNGDPDKVDKNADKDVRFKVGDKEIHGREQLRRTVEQQKKEIRYEVDVKQISDHNGQVSVHAHFQENKNGKPKNVEVTAVAEAENGTLKQLEFNSDQ
Second: DEKEDKKVLERMAKLFVSGNKEEVQKMGKDDVEVVYGDETYHGPDAARKVIERVKKLGAKVEYKEVHVEGDTMTAKVEADIAGKRVRFHVTYKATGNRVDRMEVKYTKEAQEVIKHG
The protease stability score of the first is lower: -0.367 for the first, 0.895 for the second.

Compared with “DEDKRAREAAETAIQALRTGDPDKMVKLMDPNARVRVGDKTVTGHEEIRRWMQTIQDQIDHADITVESLTVNNGRAELIFVANFDRNGRTERTRYNLEIDVRGDKVQAHQMDHG”, “DEQERAQEALRRFLRVFQEGDPDRARQQADKDVQMVVGDKEYEGREQVSRAIESLRERVDEFHITVRRITVSGNRVVVDAKLKLNINGKEDDVTLKLVIDVSGDKISIKRVEVR” is lower in protease stability score: 1.22 for the first, 1.12 for the second.

Compared with “DERFRRLVHSFIQALHTNNPEEIKELFDPNARMTIGDKQVHGQEDISRLIDRERKEMRLEIKTFSVEDKGDTADVKMKAVWDVNGKPNRHSYDLNFVDHNGKIRSLHARMDSQYLREVKS”, “DEELLERIKRIMHSGNFTELANQMDKDAKIIIGDKVLHGREQVEEWYDHLEREVDHVEVHTMTIHNGHLTVHMRMTINGKTFKVIMVIEVHNGRVKRVEVRVTDPNVQKWLKSILQ” is higher in protease stability score: -0.074 for the first, 1.26 for the second.

First: DEELEKHADTLFEAWNHNDPKTVMKMFDPNAHVDVGDHRFRGREDLHDKMSEIQEHARLRVDVKDVKAQGEKATVRFSIEINYNGKPTQDDVVQDMEVRNGRIKRLSYRTDK
Second: DEELKKWFHHWVRAMERGDEQELRNQADPNAKFKIGDKTYHGMDEFARQVVQELRHLRVHIRFKRVRNEPGRLSVDATVVREHNGKPDSYRQKASATYHNGKLTNMTINKDK
The protease stability score of the first is lower: -0.13 for the first, 0.735 for the second.

Compared with “DETAKKNVELYVQAFEDNDERKLNHMMDPNAHFRIGDRNVHGRDQVKDEVEKRRKEQSVKFKDVKVDVQGDKATIEIRWVVDKNGEPTEDVHKVDLKIHNGRAKYMQWDSVR”, “DEQEERDFNRNMVEILQQGDEEKARTNMDKDAHATYGDREYHGREQLADLLKEFRDRVDHIEMKDYSVTNGRVNVVFVAVFDGKRVELHADIQFRNGRIKRMTFKFRNEEQQKKLER” is higher in protease stability score: -0.07 for the first, 0.361 for the second.

Going from “DEDELQRFAEQVNRVVRQGDPKQAERLFDENARVQIGDKTYHGREDISKMIENQRRRVDHIKVRRIDVQGNELVIHLVYNVNGQEHRNVLVFELHNGKIESAHRTDG” to “EEEVQHKIKQLLKNNDWTTLADQVDPNARMVVGDKTVTGREQIQTIARRIQERVDHVEFKQLTVQGDHIDVVMVVNINGEHIKMHFIFRVHNGHIKHVEMQATDPRDQKKLKDLLE”, the protease stability score rises from 0.959 to 1.54.

Going from “DEDASKELQRLARENDFKRIAELADENASAQIGDNVWHGREKILTNLKRMQDQVDHQRIHSIRTHGNKLRVTVRMVVNGRDFTFRFVIEVENGRVVSIDIKATSEKDKKKMNEVIG” to “DEDKHVHRAFEEMLTVMEKGNEDEVKRLVDKDVRVHIGDKSYRGRTNVAKQIVDWARRADHIEIEVTEIDIQGDQVTMRATAHATHNGKTQSYDFTIILRIENGRAVIHSWHVS”, the protease stability score rises from -0.158 to 0.923.

Compared with “DEDAERRMREQLKVFNRGNPDQMVKYMDKDARIEVGDTVVEGREDWRHEIDKQKKEAKYKIDVKRVDVDGDDLTIDATISVDHNGKPREKKLIVEAKLHNGKLKHARYDNRG”, “DEEEAKKVVDQAVKYFQNGDAEKLRDLGKEGVKYRVADVEAHGPEVVLKAVERLKRQGVKIQYRKVEVKGDTVTTQLDYQQGDRTFTVTIEAEVKGGKIDRVEADANEDAKKIVKHG” is higher in protease stability score: -0.05 for the first, 0.172 for the second.
